We go through 1 protein from paper PMC4069020, “A 14.7 kDa Protein from Francisella tularensis subsp. novicida (Named FTN_1133), Involved in the Response to Oxidative Stress Induced by Organic Peroxides, Is Not Endowed with Thiol-Dependent Peroxidase Activity” (PLoS ONE, 2014).

What is called stoichiometry N is the number of molecules, sites or subunits per partner or assembly.

This series concerns the molecule itself. The series is described as follows: non-reducing SDS-PAGE.

B1: FTN_1133 (14.7 kDa protein from Francisella tularensis subsp. novicida), recombinant His-tagged (natural protein)
chain: MAISQNVIKILQDIDELDLFSNISDEWSTLLNESDDNIKIKKLYSALVKESIRRETAERLAKDAKSYCDLVQEQAKQRISDLKESLESQITFLTQQIKDLKVESAKNLDYYRNELKKANRSLIDNKS
notes: also called His-FTN_1133
Turning to B1, the “stoichiometry N” value amounted to 2.
